This is an account of results in patent publication US20180360949A1.

For test [1], the target named is CD4 (UniProt P01730). The experiment in a line: Biacore CD4 binding, lot comparison (clinical trial material). For orientation: Surface plasmon resonance follows binding to a sensor surface in real time, without labels.
The target of test [2] is CD4 (UniProt P01730). As to the kind of experiment: Biacore CD4 binding, lot comparison (reference material).

Turning to 1086.C gp120, the values for the CD4 binding (Biacore) % with CD4 [1] and with CD4 [2] were 87% and 100%, respectively.

Consider TV1.C gp120, for which the CD4 binding (Biacore) % with CD4 [1] was determined as 98%; with CD4 [2], 91%.
